Data as given in patent US20150344570A1 (published 2015).

T1: FcγRIIb extracellular domain with C-terminal His tag (human, UniProt P31994 43-217)
T1 construct: extracellular domain; also called FcgRIIb; 2b
T1 sequence (looked up): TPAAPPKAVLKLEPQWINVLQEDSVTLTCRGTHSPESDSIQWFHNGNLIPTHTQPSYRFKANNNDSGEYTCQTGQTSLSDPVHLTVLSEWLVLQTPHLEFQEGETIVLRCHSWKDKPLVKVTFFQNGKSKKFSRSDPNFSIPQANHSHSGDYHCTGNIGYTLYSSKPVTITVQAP

T2: FcγRIIa R (FcγRIIa, allotype with Arg at position 131), extracellular domain with C-terminal His tag (human, UniProt P12318 34-217)
T2 construct: extracellular domain; also called FcγRIIa R type; 2aR
T2 sequence (looked up): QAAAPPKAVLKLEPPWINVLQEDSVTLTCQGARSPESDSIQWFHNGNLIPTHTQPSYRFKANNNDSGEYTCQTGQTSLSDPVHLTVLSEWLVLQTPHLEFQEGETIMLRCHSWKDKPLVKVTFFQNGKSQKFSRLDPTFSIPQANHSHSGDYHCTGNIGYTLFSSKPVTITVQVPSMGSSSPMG


Biological target: T1, FcγRIIb extracellular domain with …
Test: SPR (Biacore), relative binding

Binder	He/Con_2b
GpH7-A5/GpH7-B3 variant T335_18N/GpL16-k0 (antibody, human IgG1, kappa, also called He Ab T335_18N) heavy 1: not shown heavy 2: not shown light: DIVMTQSPLSLPVTPGEPASISCQASESLVHSNRNTYLHWYLQKPGQSPQLLIYKVSNRFSGVPDRFSGSGSGTDFTLKISRVEAEDVGVYYCSQNTHVPPTFGQGTKVEIERTVAAPSVFIFPPSDEQLKSGTASVVCLLNNFYPREAKVQWKVDNALQSGNSQESVTEQDSKDSTYSLSSTLTLSKADYEKHKVYACEVTHQGLSSPVTKSFNRGEC	102 % of HeCon Ab GpH7-A5/GpH7-B3/GpL16-k0
GpH7-A5/GpH7-B3 variant T335_16H/GpL16-k0 (antibody, human IgG1, kappa, also called He Ab T335_16H) heavy 1: not shown heavy 2: not shown light: DIVMTQSPLSLPVTPGEPASISCQASESLVHSNRNTYLHWYLQKPGQSPQLLIYKVSNRFSGVPDRFSGSGSGTDFTLKISRVEAEDVGVYYCSQNTHVPPTFGQGTKVEIERTVAAPSVFIFPPSDEQLKSGTASVVCLLNNFYPREAKVQWKVDNALQSGNSQESVTEQDSKDSTYSLSSTLTLSKADYEKHKVYACEVTHQGLSSPVTKSFNRGEC	102 % of HeCon Ab GpH7-A5/GpH7-B3/GpL16-k0
GpH7-A5/GpH7-B3 variant T335_15Y/GpL16-k0 (antibody, human IgG1, kappa, also called He Ab T335_15Y) heavy 1: not shown heavy 2: not shown light: DIVMTQSPLSLPVTPGEPASISCQASESLVHSNRNTYLHWYLQKPGQSPQLLIYKVSNRFSGVPDRFSGSGSGTDFTLKISRVEAEDVGVYYCSQNTHVPPTFGQGTKVEIERTVAAPSVFIFPPSDEQLKSGTASVVCLLNNFYPREAKVQWKVDNALQSGNSQESVTEQDSKDSTYSLSSTLTLSKADYEKHKVYACEVTHQGLSSPVTKSFNRGEC	108 % of HeCon Ab GpH7-A5/GpH7-B3/GpL16-k0
GpH7-A5/GpH7-B3 variant Y296_20W/GpL16-k0 (antibody, human IgG1, kappa, also called He Ab Y296_20W) heavy 1: not shown heavy 2: not shown light: DIVMTQSPLSLPVTPGEPASISCQASESLVHSNRNTYLHWYLQKPGQSPQLLIYKVSNRFSGVPDRFSGSGSGTDFTLKISRVEAEDVGVYYCSQNTHVPPTFGQGTKVEIERTVAAPSVFIFPPSDEQLKSGTASVVCLLNNFYPREAKVQWKVDNALQSGNSQESVTEQDSKDSTYSLSSTLTLSKADYEKHKVYACEVTHQGLSSPVTKSFNRGEC	103 % of HeCon Ab GpH7-A5/GpH7-B3/GpL16-k0
GpH7-A5/GpH7-B3 variant T335_20W/GpL16-k0 (antibody, human IgG1, kappa, also called He Ab T335_20W) heavy 1: not shown heavy 2: not shown light: DIVMTQSPLSLPVTPGEPASISCQASESLVHSNRNTYLHWYLQKPGQSPQLLIYKVSNRFSGVPDRFSGSGSGTDFTLKISRVEAEDVGVYYCSQNTHVPPTFGQGTKVEIERTVAAPSVFIFPPSDEQLKSGTASVVCLLNNFYPREAKVQWKVDNALQSGNSQESVTEQDSKDSTYSLSSTLTLSKADYEKHKVYACEVTHQGLSSPVTKSFNRGEC	104 % of HeCon Ab GpH7-A5/GpH7-B3/GpL16-k0
GpH7-A5/GpH7-B3 variant T335_07I/GpL16-k0 (antibody, human IgG1, kappa, also called He Ab T335_07I) heavy 1: not shown heavy 2: not shown light: DIVMTQSPLSLPVTPGEPASISCQASESLVHSNRNTYLHWYLQKPGQSPQLLIYKVSNRFSGVPDRFSGSGSGTDFTLKISRVEAEDVGVYYCSQNTHVPPTFGQGTKVEIERTVAAPSVFIFPPSDEQLKSGTASVVCLLNNFYPREAKVQWKVDNALQSGNSQESVTEQDSKDSTYSLSSTLTLSKADYEKHKVYACEVTHQGLSSPVTKSFNRGEC	106 % of HeCon Ab GpH7-A5/GpH7-B3/GpL16-k0
GpH7-A5/GpH7-B3 variant T335_13S/GpL16-k0 (antibody, human IgG1, kappa, also called He Ab T335_13S) heavy 1: not shown heavy 2: not shown light: DIVMTQSPLSLPVTPGEPASISCQASESLVHSNRNTYLHWYLQKPGQSPQLLIYKVSNRFSGVPDRFSGSGSGTDFTLKISRVEAEDVGVYYCSQNTHVPPTFGQGTKVEIERTVAAPSVFIFPPSDEQLKSGTASVVCLLNNFYPREAKVQWKVDNALQSGNSQESVTEQDSKDSTYSLSSTLTLSKADYEKHKVYACEVTHQGLSSPVTKSFNRGEC	102 % of HeCon Ab GpH7-A5/GpH7-B3/GpL16-k0
GpH7-A5/GpH7-B3 variant T335_10E/GpL16-k0 (antibody, human IgG1, kappa, also called He Ab T335_10E) heavy 1: not shown heavy 2: not shown light: DIVMTQSPLSLPVTPGEPASISCQASESLVHSNRNTYLHWYLQKPGQSPQLLIYKVSNRFSGVPDRFSGSGSGTDFTLKISRVEAEDVGVYYCSQNTHVPPTFGQGTKVEIERTVAAPSVFIFPPSDEQLKSGTASVVCLLNNFYPREAKVQWKVDNALQSGNSQESVTEQDSKDSTYSLSSTLTLSKADYEKHKVYACEVTHQGLSSPVTKSFNRGEC	108 % of HeCon Ab GpH7-A5/GpH7-B3/GpL16-k0
GpH7-A5/GpH7-B3 variant V266_06M/GpL16-k0 (antibody, human IgG1, kappa, also called He Ab V266_06M) heavy 1: not shown heavy 2: not shown light: DIVMTQSPLSLPVTPGEPASISCQASESLVHSNRNTYLHWYLQKPGQSPQLLIYKVSNRFSGVPDRFSGSGSGTDFTLKISRVEAEDVGVYYCSQNTHVPPTFGQGTKVEIERTVAAPSVFIFPPSDEQLKSGTASVVCLLNNFYPREAKVQWKVDNALQSGNSQESVTEQDSKDSTYSLSSTLTLSKADYEKHKVYACEVTHQGLSSPVTKSFNRGEC	251 % of HeCon Ab GpH7-A5/GpH7-B3/GpL16-k0
GpH7-A5/GpH7-B3 variant T335_19Q/GpL16-k0 (antibody, human IgG1, kappa, also called He Ab T335_19Q) heavy 1: not shown heavy 2: not shown light: DIVMTQSPLSLPVTPGEPASISCQASESLVHSNRNTYLHWYLQKPGQSPQLLIYKVSNRFSGVPDRFSGSGSGTDFTLKISRVEAEDVGVYYCSQNTHVPPTFGQGTKVEIERTVAAPSVFIFPPSDEQLKSGTASVVCLLNNFYPREAKVQWKVDNALQSGNSQESVTEQDSKDSTYSLSSTLTLSKADYEKHKVYACEVTHQGLSSPVTKSFNRGEC	100 % of HeCon Ab GpH7-A5/GpH7-B3/GpL16-k0

Biological target: T2, FcγRIIa R (FcγRIIa, allotype with Arg …)
Test: SPR (Biacore), antibody captured on antigen peptide chip, FcγR as analyte; relative binding
Procedure: Analysis of interaction between objective antibody and the FcγR was carried out using Biacore T100 (GE Healthcare). HBS-EP+ (GE Healthcare) was used as the running buffer, and the measurement temperature was set to 25° C. Chips produced by immobilizing the antigen peptide by the amine coupling method to a Series S Sencor Chip CM5 (GE Healthcare), or alternatively, chips produced by allowing preliminarily biotinylated antigen peptides to interact with and immobilize onto a Series S Sensor Chip SA (certified) (GE Healthcare) were used. Antibodies of interest were captured onto an antigen peptide-immobilized chip, and allowed to interact to each FcγR diluted with running buffer. To regenerate and repeatedly use the chip, the antibodies captured on the chip were washed off by reacting 10 mM glycine-HCl, pH 1.5.

Binder	Ho/Con_2aR
GpH7-B3 variant S337_02A/GpL16-k0 (antibody, human IgG1, kappa, also called Ho Ab) heavy: not shown light: DIVMTQSPLSLPVTPGEPASISCQASESLVHSNRNTYLHWYLQKPGQSPQLLIYKVSNRFSGVPDRFSGSGSGTDFTLKISRVEAEDVGVYYCSQNTHVPPTFGQGTKVEIERTVAAPSVFIFPPSDEQLKSGTASVVCLLNNFYPREAKVQWKVDNALQSGNSQESVTEQDSKDSTYSLSSTLTLSKADYEKHKVYACEVTHQGLSSPVTKSFNRGEC	102 % of GpH7-B3/GpL16-k0 (=100)
GpH7-B3 variant P331_08L/GpL16-k0 (antibody, human IgG1, kappa, also called Ho Ab) heavy: not shown light: DIVMTQSPLSLPVTPGEPASISCQASESLVHSNRNTYLHWYLQKPGQSPQLLIYKVSNRFSGVPDRFSGSGSGTDFTLKISRVEAEDVGVYYCSQNTHVPPTFGQGTKVEIERTVAAPSVFIFPPSDEQLKSGTASVVCLLNNFYPREAKVQWKVDNALQSGNSQESVTEQDSKDSTYSLSSTLTLSKADYEKHKVYACEVTHQGLSSPVTKSFNRGEC	74.4 % of GpH7-B3/GpL16-k0 (=100)
GpH7-B3 variant P331_09D/GpL16-k0 (antibody, human IgG1, kappa, also called Ho Ab) heavy: not shown light: DIVMTQSPLSLPVTPGEPASISCQASESLVHSNRNTYLHWYLQKPGQSPQLLIYKVSNRFSGVPDRFSGSGSGTDFTLKISRVEAEDVGVYYCSQNTHVPPTFGQGTKVEIERTVAAPSVFIFPPSDEQLKSGTASVVCLLNNFYPREAKVQWKVDNALQSGNSQESVTEQDSKDSTYSLSSTLTLSKADYEKHKVYACEVTHQGLSSPVTKSFNRGEC	88.8 % of GpH7-B3/GpL16-k0 (=100)
GpH7-B3 variant P331_15Y/GpL16-k0 (antibody, human IgG1, kappa, also called Ho Ab) heavy: not shown light: DIVMTQSPLSLPVTPGEPASISCQASESLVHSNRNTYLHWYLQKPGQSPQLLIYKVSNRFSGVPDRFSGSGSGTDFTLKISRVEAEDVGVYYCSQNTHVPPTFGQGTKVEIERTVAAPSVFIFPPSDEQLKSGTASVVCLLNNFYPREAKVQWKVDNALQSGNSQESVTEQDSKDSTYSLSSTLTLSKADYEKHKVYACEVTHQGLSSPVTKSFNRGEC	105 % of GpH7-B3/GpL16-k0 (=100)
GpH7-B3 variant P331_06M/GpL16-k0 (antibody, human IgG1, kappa, also called Ho Ab) heavy: not shown light: DIVMTQSPLSLPVTPGEPASISCQASESLVHSNRNTYLHWYLQKPGQSPQLLIYKVSNRFSGVPDRFSGSGSGTDFTLKISRVEAEDVGVYYCSQNTHVPPTFGQGTKVEIERTVAAPSVFIFPPSDEQLKSGTASVVCLLNNFYPREAKVQWKVDNALQSGNSQESVTEQDSKDSTYSLSSTLTLSKADYEKHKVYACEVTHQGLSSPVTKSFNRGEC	79.8 % of GpH7-B3/GpL16-k0 (=100)
GpH7-B3 variant P331_13S/GpL16-k0 (antibody, human IgG1, kappa, also called Ho Ab) heavy: not shown light: DIVMTQSPLSLPVTPGEPASISCQASESLVHSNRNTYLHWYLQKPGQSPQLLIYKVSNRFSGVPDRFSGSGSGTDFTLKISRVEAEDVGVYYCSQNTHVPPTFGQGTKVEIERTVAAPSVFIFPPSDEQLKSGTASVVCLLNNFYPREAKVQWKVDNALQSGNSQESVTEQDSKDSTYSLSSTLTLSKADYEKHKVYACEVTHQGLSSPVTKSFNRGEC	87.8 % of GpH7-B3/GpL16-k0 (=100)
GpH7-B3 variant P331_10E/GpL16-k0 (antibody, human IgG1, kappa, also called Ho Ab) heavy: not shown light: DIVMTQSPLSLPVTPGEPASISCQASESLVHSNRNTYLHWYLQKPGQSPQLLIYKVSNRFSGVPDRFSGSGSGTDFTLKISRVEAEDVGVYYCSQNTHVPPTFGQGTKVEIERTVAAPSVFIFPPSDEQLKSGTASVVCLLNNFYPREAKVQWKVDNALQSGNSQESVTEQDSKDSTYSLSSTLTLSKADYEKHKVYACEVTHQGLSSPVTKSFNRGEC	94.6 % of GpH7-B3/GpL16-k0 (=100)
GpH7-B3 variant P331_07I/GpL16-k0 (antibody, human IgG1, kappa, also called Ho Ab) heavy: not shown light: DIVMTQSPLSLPVTPGEPASISCQASESLVHSNRNTYLHWYLQKPGQSPQLLIYKVSNRFSGVPDRFSGSGSGTDFTLKISRVEAEDVGVYYCSQNTHVPPTFGQGTKVEIERTVAAPSVFIFPPSDEQLKSGTASVVCLLNNFYPREAKVQWKVDNALQSGNSQESVTEQDSKDSTYSLSSTLTLSKADYEKHKVYACEVTHQGLSSPVTKSFNRGEC	67 % of GpH7-B3/GpL16-k0 (=100)
GpH7-B3 variant P331_14T/GpL16-k0 (antibody, human IgG1, kappa, also called Ho Ab) heavy: not shown light: DIVMTQSPLSLPVTPGEPASISCQASESLVHSNRNTYLHWYLQKPGQSPQLLIYKVSNRFSGVPDRFSGSGSGTDFTLKISRVEAEDVGVYYCSQNTHVPPTFGQGTKVEIERTVAAPSVFIFPPSDEQLKSGTASVVCLLNNFYPREAKVQWKVDNALQSGNSQESVTEQDSKDSTYSLSSTLTLSKADYEKHKVYACEVTHQGLSSPVTKSFNRGEC	80.8 % of GpH7-B3/GpL16-k0 (=100)
